B1: Carboxymethylenebutenolidase, P0A115 (parent)
chain: MLTEGISIQSYDGHTFGALVGSPAKAPAPVIVIAQEIFGVNAFMRETVSWLVDQGYAAVCPDLYARQAPGTALDPQDERQREQAYKLWQAFDMEAGVGDLEAAIRYARHQPYSNGKVGLVGYCLGGALAFLVAAKGYVDRAVGYYGVGLEKQLKKVPEVKHPALFHMGGQDHFVPAPSRQLITEGFGANPLLQVHWYEEAGHSFARTSSSGYVASAAALANERRLDFLAPLQSKKP

Variants of: B1
Settings: Pseudomonas knackmussii (strain DSM 6978 / CCUG 54928 / LMG 23759 / B13), pH 7.5, Thermal, Hepes 50 mM, structure 4U2B, whole UniProt chain shown

Q110L K154D
Tm (Activity, NaCl 75 mM): 54.2 °C
change of melting temperature, mutant - wild type (higher = more stable) (Activity, NaCl 75 mM): 3.1 °C
Tm (fluorescence): 54.8 °C
change of melting temperature, mutant - wild type (higher = more stable) (fluorescence): 3.3 °C

K154D
Tm (Activity, NaCl 75 mM): 53.9 °C
change of melting temperature, mutant - wild type (higher = more stable) (Activity, NaCl 75 mM): 2.7 °C
Tm (fluorescence): 54.4 °C
change of melting temperature, mutant - wild type (higher = more stable) (fluorescence): 2.9 °C

Y137C
Tm (Activity, NaCl 75 mM): 49.3 °C
change of melting temperature, mutant - wild type (higher = more stable) (Activity, NaCl 75 mM): -1.9 °C
Tm (fluorescence): 50.8 °C
change of melting temperature, mutant - wild type (higher = more stable) (fluorescence): -0.7 °C
